Experimental data taken from paper PMC6855452.

Key:
[1] = target: LY6A (C57BL/6J allele), expressed from Ly6a cDNA in HEK293T cells (mouse (C57BL/6J)) (UniProt P05533); experiment: bound vector genome assay (qPCR of viral genomes on cells); HEK293T cells transfected with Ly6 cDNA or left untransfected; 48 h later chilled to 4°C, recombinant AAV at 10^5 vg/cell for one hour, washed three times with cold PBS; vector genomes normalized to cell genomes
[2] = target: LY6A, endogenous on primary brain microvascular endothelial cells of C57BL/6 mice (mouse (endogenous in C57BL/6 BMVECs)) (UniProt P05533); experiment: bound vector genome assay (qPCR of viral genomes on cells); primary BMVECs of C57BL/6 mice treated with SaCas9 vectors with sgRNAs against Ly6a or Ly6c1 or no sgRNA; 4°C, one hour, AAV at 10^6 vg/cell; normalized to cells treated with a vector lacking a sgRNA

Substance | fold increase in binding to cells on Ly6a expression [1] | reduction in binding to BMVECs on Ly6a disruption (~50% reduction of LY6A) [2]
AAV-PHP.B capsid (engineered AAV9 variant) (from UniProt Q6JC40 1-736; Q6JC40 1-736; Q6JC40 1-736) (complex) | > 50 fold | 
AAV-PHP.eB capsid (engineered AAV9 variant, further evolved from AAV-PHP.B) (from UniProt Q6JC40 1-736; Q6JC40 1-736; Q6JC40 1-736) (complex) | > 50 fold | 50%
